According to patent US20240425606A1, “ANTI-IL-11RA ANTIBODIES” (Lassen Therapeutics 1, Inc., priority 2021, published 2024):
Changes are numbered by the printed parent chain. Numbers in names are those of the source.

T1: human IL-11Rα (human, UniProt Q14626 23-363, limits assumed)
T1 construct: Protein coated on ELISA plates and used in solution for BLI; also called hIL-11Rα; hIL-11R
T1 sequence: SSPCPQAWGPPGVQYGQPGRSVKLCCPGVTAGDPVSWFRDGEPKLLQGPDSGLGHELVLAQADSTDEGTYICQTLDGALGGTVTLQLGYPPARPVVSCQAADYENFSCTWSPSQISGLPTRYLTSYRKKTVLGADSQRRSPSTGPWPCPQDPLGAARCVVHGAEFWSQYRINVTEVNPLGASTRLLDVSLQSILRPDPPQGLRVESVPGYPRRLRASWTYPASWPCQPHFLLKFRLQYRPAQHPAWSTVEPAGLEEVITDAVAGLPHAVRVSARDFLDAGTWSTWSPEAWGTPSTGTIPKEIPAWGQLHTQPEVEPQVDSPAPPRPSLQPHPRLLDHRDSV

T2: hIL-11Rα (Homo sapiens, UniProt Q14626)
T2 sequence (Q14626 23-422): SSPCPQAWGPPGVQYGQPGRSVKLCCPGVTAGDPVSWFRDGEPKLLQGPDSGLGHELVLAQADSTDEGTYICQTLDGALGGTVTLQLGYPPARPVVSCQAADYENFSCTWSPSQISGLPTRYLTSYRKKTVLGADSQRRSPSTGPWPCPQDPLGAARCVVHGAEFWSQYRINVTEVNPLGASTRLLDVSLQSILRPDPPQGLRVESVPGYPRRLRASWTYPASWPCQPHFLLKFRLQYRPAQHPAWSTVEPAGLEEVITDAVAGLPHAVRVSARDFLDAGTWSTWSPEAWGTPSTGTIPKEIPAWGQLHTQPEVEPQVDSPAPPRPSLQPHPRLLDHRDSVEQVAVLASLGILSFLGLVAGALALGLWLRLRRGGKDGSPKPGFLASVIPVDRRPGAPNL

B1: mAb21 (antibody, human IgG4, V domains shown)
VH: EVQLLESGGGLVQPGGSLRLSCAASGFTFSHYSMTWVRQAPGKGLEWVSSIVPYGDLTQYADSVKGRFTISRDNSKNTLYLQMNSLRAEDTAVYYCAKGPGWGSFDLWGRGTLVTVSS
VL: DIQMTQSPSSLSASVGDRVTITCQASQDINNYLNWYQQKPGKAPKLLIYDASNLQTGVPSRFSGSGSGTDFTFTISSLQPEDIATYYCQQHESQSPTFGPGTKVDIK
notes: Expressed as human IgG4 (S228P EU)
B2: mAb23 (antibody, human IgG4, V domains shown)
VH: B1 VH with H31K
VL: B1 VL
notes: as for B1
B3: mAb29 (antibody, human IgG4, V domains shown)
VH: B1 VH with H31S
VL: B1 VL
notes: as for B1
B4: mAb31 (antibody, human IgG4, V domains shown)
VH: B1 VH with H31V
VL: B1 VL
notes: as for B1
B5: mAb12: anti-IL-11Rα antibody; VH SEQ ID NO: 215, VL SEQ ID NO: 216; human IgG4 (S228P), kappa light chain (antibody, V domains shown)
VH: B1 VH with H31W, G103Y
VL: B1 VL
modifications: human IgG4 S228P and kappa constant regions; mAb12 VH Chain; mAb12 VL Chain
notes: anti-IL-11Rα antibody; human IgG4 (S228P), kappa light chain
B6: mAb9: anti-IL-11Rα antibody; VH SEQ ID NO: 209, VL SEQ ID NO: 210; human IgG4 (S228P), kappa light chain (antibody, V domains shown)
VH: B1 VH with H31W, S50G
VL: B1 VL
modifications: human IgG4 and kappa constant regions; mAb9 VH Chain; mAb9 VL Chain
notes: as for B5
B7: mAb13: anti-IL-11Rα antibody; VH SEQ ID NO: 217, VL SEQ ID NO: 218; human IgG4 (S228P), kappa light chain (antibody, V domains shown)
VH: B1 VH with H31W, G99P, P100E, G101D, S104R
VL: B1 VL
modifications: human IgG4 S228P and kappa constant regions; mAb13 VH Chain; mAb13 VL Chain
notes: as for B5
B8: mAb6: anti-IL-11Rα antibody; VH SEQ ID NO: 203, VL SEQ ID NO: 204; human IgG4 (S228P), kappa light chain (antibody, V domains shown)
VH: B1 VH with H31W
VL: B1 VL with S93F
modifications: human IgG4 S228P and kappa constant regions; mAb6 VH Chain; mAb6 VL Chain
notes: as for B5
B9: mAb14: anti-IL-11Rα antibody; VH SEQ ID NO: 219, VL SEQ ID NO: 220; human IgG4 (S228P), kappa light chain (antibody, V domains shown)
VH: B1 VH with H31W, D62E
VL: B1 VL
modifications: human IgG4 S228P and kappa constant regions; mAb14 VH Chain; mAb14 VL Chain
notes: as for B5
B10: mAb15: anti-IL-11Rα antibody; VH SEQ ID NO: 221, VL SEQ ID NO: 222; human IgG4 (S228P), kappa light chain (antibody, V domains shown)
VH: B1 VH with H31W
VL: B1 VL with S93T, S95T
modifications: human IgG4 S228P and kappa constant regions; mAb15 VH Chain; mAb15 VL Chain
notes: as for B5
B11: mAb8: anti-IL-11Rα antibody; VH SEQ ID NO: 207, VL SEQ ID NO: 208; human IgG4 (S228P), kappa light chain (antibody, V domains shown)
VH: B1 VH with H31S, S33A, T35S
VL: B1 VL
modifications: human IgG4 and kappa constant regions; mAb8 VH Chain; mAb8 VL Chain
notes: as for B5
B12: mAb7: anti-IL-11Rα antibody; VH SEQ ID NO: 205, VL SEQ ID NO: 206; human IgG4 (S228P), kappa light chain (antibody, V domains shown)
VH: B1 VH with H31N, S33A, T35S
VL: B1 VL
modifications: human IgG4 S228P and kappa constant regions; mAb7 VH Chain; mAb7 VL Chain
notes: as for B5
B13: mAb10: anti-IL-11Rα antibody; VH SEQ ID NO: 211, VL SEQ ID NO: 212; human IgG4 (S228P), kappa light chain (antibody, V domains shown)
VH: B1 VH with H31W, P53A
VL: B1 VL
modifications: human IgG4 S228P and kappa constant regions; mAb10 VH Chain; mAb10 VL Chain
notes: as for B5

Target: T1, human IL-11Rα
Test: BLI (Octet RED96e), mAb on anti-human constant domain (AHC) biosensors, hIL-11R in solution
Details: not given
Description: A further series of antibodies were designed in which the residue at Kabat position 31 of the heavy chain was varied (mAbs 16-32). In this case an alternate biolayer interferometry assay was used to initially rank the antibodies compared to mAb5, the closest relative in sequence to mAbs 16-32. MAbs were loaded onto anti-human constant domain (AHC) biosensors (FortdBio) in 10× kinetics buffer consisting of PBS, 0.1% BSA, 0.02% Tween 20 for 120 s to achieve a spectral shift value of 0.8 to 1.2 nm. Association was carried out in the presence of 2-fold dilution series of hIL-1 IR and was allowed to proceed for 120 s. Dilution series started 10 nM. The dissociation in 10× kinetics buffer for 1200 s. Binding kinetic measurements were taken on an Octet RED96e instrument.

Molecule | Kd [nM] | kon [M⁻¹ s⁻¹] | koff [s⁻¹]
B1 | < 0.03 | 750000 | 
B2 | < 0.03 | 720000 | 
B3 | 0.03 | 610000 | 1.8e-05
B4 | < 0.03 | 690000 | 

Tested on: IL-11 signaling in STAT3 Reporter (Luciferase)—HEK293 cell line
Test: Cell-based STAT3 reporter (luciferase) assay for inhibiting IL-11 signaling
Set-up: species or system human
Details: compared with TS7 and 8E2
Method: Further testing of the lead mAbs was carried out using a cell-based reporter assay. IL-11 is reported to signal through the STAT3 and ERK pathways. Therefore, a STAT3 reporter cell line in which firefly luciferase gene expression is driven by STAT3 response elements located upstream of a minimal TATA promoter was selected to analyze mAb functional activity. In these cells, IL-11 can activate the endogenous STAT3 allowing it to bind to the STAT3 response elements, inducing transcription of the luciferase reporter gene and resulting in readily detectable luciferase expression. Antibodies to IL-11R which block IL-11 signaling should inhibit expression of IL-11 driven luciferase in these cells.
The STAT3 Reporter (Luciferase)—HEK293 cell line (BPS Bioscience, catalog #79800-P) was grown, passaged, and assayed as per manufacturer's protocols. Cells were added at 25,000 cells per well in a 96-well microtiter dish and incubated at 37° C. for 30-45 min. in 5% CO2 humidified air. Anti-IL-11R mAbs were added as a 3-fold dilution series in duplicate columns or rows, and plates were returned to the incubator for an additional 1 h at 37° C. after which 40 ng/mL IL-11 was added to each well to initiate the signal transduction cascade and luciferase production. Plates were incubated for 18-24 hours at 37° C. and luciferase was detected using a One-Step Luciferase Assay System (BPS Bioscience, cat. no. 60690-1) as per manufacturer's instructions.

Molecule | relative potency at inhibiting IL-11 signaling (in words)
B5 | comparable in potency to TS7
B6 | more potent at inhibiting IL-11 signaling than either of TS7 or 8E2
B7 | more potent at inhibiting IL-11 signaling than either of TS7 or 8E2
B8 | variable
B9 | comparable in potency to TS7
B10 | comparable in potency to TS7
B11 | less potent than TS7
B12 | less potent than TS7
B13 | less potent than TS7

Target: T2, hIL-11Rα
Test: Kinetic binding analysis by biolayer interferometry (protein G biosensors, Octet RED96e)
Details: beyond the ability of the instrument to determine an accurate off-rate (kd)
Method: Association was carried out in the presence of a 2-fold dilution series of hIL-11Rα and was allowed to proceed for 120 seconds; dissociation was measured for 300 to 1200 seconds.

Molecule | binding affinity (in words)
B5 | very high binding affinity
B6 | very high binding affinity
B7 | very high binding affinity
B8 | very high binding affinity
B9 | very high binding affinity
B10 | very high binding affinity
B11 | very high binding affinity
B12 | very high binding affinity

Same assay, conditions: protein G biosensors; association 120 seconds

Molecule | ka [M⁻¹ s⁻¹]
B5 | 58100
B6 | 62200
B7 | 66700
B8 | 800000
B9 | 33700
B10 | 84000
B11 | 65100
B12 | 63500
B13 | 840000

Same assay, conditions: protein G biosensors; dissociation 300 to 1200 seconds

Molecule | kd [s⁻¹]
B5 | <1e-07
B6 | <1e-07
B7 | <1e-07
B8 | <1e-07
B9 | <1e-07
B10 | <1e-07
B11 | <1e-07
B12 | <1e-07
B13 | 0.000416
